From patent US9943596B2, “Combination therapy using dual inhibitor of c-MET and EGFR and IGF-1R inhibitor” (Samsung Electronics Co., Ltd., priority 2014, dated 2018)

B1: scFv of huAbF46: scFv of structure VH-linker-VL from the heavy and light chain variable regions of huAbF46 (protein)
scFv: EVQLVESGGGLVQPGGSLRLSCAASGFTFTDYYMSWVRQAPGKGLEWLGFIRNKANGYTTEYSASVKGRFTISRDNSKNTLYLQMNSLRAEDTAVYYCARDNWFAYWGQGTLVTVSSGLGGLGGGGSGGGGSGGSSGVGSDIQMTQSPSSLSASVGDRVTITCKSSQSLLASGNQNNYLAWHQQKPGKAPKMLIIWASTRVSGVPSRFSGSGSGTDFTLTISSLQPEDFATYYCQQSYSAPLTFGQGTKVEIKR
B2: ME22S: anti-c-Met/anti-EGFR bispecific antibody in which the modified anti-EGFR scFv is fused at the c-terminal of L3-1Y-IgG2 (antibody)
heavy: EVQLVESGGGLVQPGGSLRLSCAASGFTFTDYYMSWVRQAPGKGLEWLGFIRNKANGYTTEYSASVKGRFTISRDNSKNTLYLQMNSLRAEDTAVYYCARDNWFAYWGQGTLVTVSSASTKGPSVFPLAPCSRSTSESTAALGCLVKDYFPEPVTVSWNSGALTSGVHTFPAVLQSSGLYSLSSVVTVPSSNFGTQTYTCNVDHKPSNTKVDKTVERKCCVECPPCPAPPVAGPSVFLFPPKPKDTLMISRTPEVTCVVVDVSHEDPEVQFNWYVDGVEVHNAKTKPREEQFNSTFRVVSVLTVVHQDWLNGKEYKCKVSNKGLPAPIEKTISKTKGQPREPQVYTLPPSREEMTKNQVSLTCLVKGFYPSDIAVEWESNGQPENNYKTTPPMLDSDGSFFLYSKLTVDKSRWQQGNVFSCSVMHEALHNHYTQKSLSLSPGKGGGGSGGGGSEVQLLESGGGLVQPGGSLRLSCAASGFTFSNYDMSWVRQAPGKCLEWVSGISHSSGSKYYADSVKGRFTISRDNSKNTLYLQMNSLRAEDTAVYYCAKDATPRPLKPFDYWGQGTLVTVSSGGGGSGGGGSGGGGSQSVLTQPPSASGTPGQRVTISCTGSSSNIGNNDVSWYQQLPGTAPKLLIYDDNKRPSGVPDRFSGSKSGTSASLAISGLRSEDEADYYCGSWDASLNAYVFGCGTKLTVLG
light: DIQMTQSPSSLSASVGDRVTITCKSSQSLLASGNQNNYLAWYQQKPGKAPKMLIIWASTRVSGVPSRFSGSGSGTDFTLTISSLQPEDFATYYCQQSYSRPYTFGQGTKVEIKRTVAAPSVFIFPPSDEQLKSGTASVVCLLNNFYPREAKVQWKVDNALQSGNSQESVTEQDSKDSTYSLSSTLTLSKADYEKHKVYACEVTHQGLSSPVTKSFNRGEC

Columns and labels:
c-Met = c-Met (Homo sapiens, UniProt P08581); experiment: specificity of expressed scFv of huAbF46; assay type: binding; conditions: after expression
Source text: For use in constructing an scFv of the huAbF46 antibody from the heavy and light chain variable regions of the huAbF46 antibody, a gene was designed to have the structure of “VH-linker-VL” for each of the heavy and the light chain variable region, with the linker including the amino acid sequence “[…]” (SEQ ID NO: 54). A polynucleotide sequence (SEQ ID NO: 55) encoding the designed scFv of huAbF46 was synthesized in Bioneer and an expression vector for the polynucleotide had the nucleotide sequence of SEQ ID NO: 56.

[1] = tested on: gastric cancer cell line SNU5; experiment: cell proliferation assay (CellTiter Glo), SNU5; assay type: cell-based; conditions: ME22S 1/5 dilutions from 60 nM, alone or with linsitinib 10 μM, 72 hours, FIG. 2
Method: (§1) 72 hours after the treatment with the antibody and/or the inhibitor drug, the number of living cells was counted using a CellTiter Glo assay (Promega, G7573). This assay measures the amount of ATP which reflects metabolism of living cells, thereby counting the number of living cells.
(§2) 72 hours after the co-treatment, the cell number was measured by CellTiter Glo assay (Promega, G7573).

[2] = tested on: gastric cancer cell line MKN45; experiment: cell proliferation assay (CellTiter Glo), MKN45; assay type: cell-based; conditions: ME22S 1/5 dilutions from 10 nM and/or linsitinib 10 μM, 72 hours, FIGS. 4A, 4B
Method: as §1
(§3) 72 hours after the co-treatment, the number of living cells was counted by CellTiter Glo assay (Promega, G7573).

[3] = tested on: L3-1Y/IgG2 resistant MKN45re#1 and MKN45re#24 cell lines; experiment: cell proliferation assay (CellTiter Glo), anti-c-Met antibody resistant MKN45; assay type: cell-based
Method: To obtain anti-c-Met antibody resistant MKN45 gastric cancer cells, MKN45 gastric cancer cells were administered with L3-1Y/IgG2 for at least 3 months by increasing the administration concentration. The amount of L3-1Y/IgG2 administered was increased from 1 μg/ml to 10 μg/ml, until resistance to L3-1Y/IgG2 is induced. The obtained L3-1Y/IgG2 resistant clones were named as MKN45re#1 and MKN45re#24, respectively.
72 hours after the co-treatment, the number of living cells was counted by CellTiter Glo assay (Promega, G7573). […] For comparison, the same experiment was preformed except that cells were treated with ME22S alone at the 1/5 diluted concentration starting from 10 nM.

[4] = tested on: gastric cancer cell line SNU668; experiment: cell proliferation assay (CellTiter Glo), SNU668; assay type: cell-based; conditions: ME22S 1/5 dilutions from 60 nM, alone or with linsitinib 10 μM, 72 hours, FIG. 2
Method: as §1, §2

[5] = tested on: lung cancer cell line HCC827; experiment: cell proliferation assay (CellTiter Glo), HCC827; assay type: cell-based; conditions: ME22S 1/5 dilutions from 150 nM and/or linsitinib 10 μM, 72 hours, FIGS. 3A, 3B
Method: as §1, §3

Sequence of c-Met (P08581 25-1390): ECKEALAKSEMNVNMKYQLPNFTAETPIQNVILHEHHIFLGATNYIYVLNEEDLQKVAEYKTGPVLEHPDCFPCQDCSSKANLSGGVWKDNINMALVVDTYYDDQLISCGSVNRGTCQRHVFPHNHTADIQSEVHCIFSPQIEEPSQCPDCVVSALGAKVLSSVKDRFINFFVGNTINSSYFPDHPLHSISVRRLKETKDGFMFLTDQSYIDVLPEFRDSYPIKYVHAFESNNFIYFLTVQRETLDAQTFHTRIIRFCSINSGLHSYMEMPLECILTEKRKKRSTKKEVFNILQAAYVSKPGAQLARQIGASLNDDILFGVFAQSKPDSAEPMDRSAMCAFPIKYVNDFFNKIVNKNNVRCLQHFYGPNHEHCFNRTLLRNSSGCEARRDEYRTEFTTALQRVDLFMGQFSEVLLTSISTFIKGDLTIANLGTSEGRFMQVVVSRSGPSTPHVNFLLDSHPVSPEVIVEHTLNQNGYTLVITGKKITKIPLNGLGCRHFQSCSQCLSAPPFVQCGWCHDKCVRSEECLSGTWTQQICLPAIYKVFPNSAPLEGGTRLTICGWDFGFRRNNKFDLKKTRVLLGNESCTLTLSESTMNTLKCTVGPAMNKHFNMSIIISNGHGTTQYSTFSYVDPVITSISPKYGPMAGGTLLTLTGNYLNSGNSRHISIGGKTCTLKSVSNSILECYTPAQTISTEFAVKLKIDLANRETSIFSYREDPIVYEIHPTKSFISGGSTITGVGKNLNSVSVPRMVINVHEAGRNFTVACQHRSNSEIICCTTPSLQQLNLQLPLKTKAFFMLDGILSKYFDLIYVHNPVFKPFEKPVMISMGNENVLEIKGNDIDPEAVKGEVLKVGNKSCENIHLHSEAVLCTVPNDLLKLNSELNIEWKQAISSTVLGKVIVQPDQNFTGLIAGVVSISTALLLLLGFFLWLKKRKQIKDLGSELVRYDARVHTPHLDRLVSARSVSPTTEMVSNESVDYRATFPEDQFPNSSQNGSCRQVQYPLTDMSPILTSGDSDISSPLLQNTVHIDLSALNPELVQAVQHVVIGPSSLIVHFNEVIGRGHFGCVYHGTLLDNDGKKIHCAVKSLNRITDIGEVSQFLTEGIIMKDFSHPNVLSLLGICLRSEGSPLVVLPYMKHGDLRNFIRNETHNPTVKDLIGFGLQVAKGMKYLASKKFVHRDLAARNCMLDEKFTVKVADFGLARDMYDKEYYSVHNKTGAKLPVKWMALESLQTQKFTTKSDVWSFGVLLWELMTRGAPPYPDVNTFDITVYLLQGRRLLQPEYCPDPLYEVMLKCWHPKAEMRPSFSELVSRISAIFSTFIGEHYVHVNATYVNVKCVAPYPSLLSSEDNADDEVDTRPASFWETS

| Molecule | specificity to c-Met (c-Met) | cell proliferation inhibition effect [1] | cancer cell proliferation inhibition [2] | cancer cell proliferation inhibition effect ([3]; MKN45re#1 (linsitinib 10 μM) or MKN45re#24 (linsitinib 2.5 μM), ME22S 1/5 dilutions from 10 nM, 72 hours, FIG. 5) | resistance of the cell line to the antibody ([3]; anti-c-Met antibody (L3-1Y/IgG2) resistant MKN45 gastric cancer cell line) | cell proliferation inhibition effect [4] | cancer cell proliferation inhibition effect [5] |
| --- | --- | --- | --- | --- | --- | --- | --- |
| B1 | exhibit specificity to c-Met | – | – | – | – | – | – |
| B2 | – | has a cell proliferation inhibition effect | can inhibit proliferation | no cancer cell proliferation inhibition effect | resistant | does not exhibit a cell proliferation inhibition effect | not observed |
